Assay [1] deals with BAFF. The assay is described as follows: cell binding titration by flow cytometry; soluble BAFF varied to 10 nM on cells displaying the BCMA clone. For orientation: Flow cytometry measures light scatter and fluorescence of single cells or particles in a stream.
In assay [2] the target is T1, A Proliferation Inducing Ligand (APRIL) (human, UniProt O75888 105-250).
T1 sequence: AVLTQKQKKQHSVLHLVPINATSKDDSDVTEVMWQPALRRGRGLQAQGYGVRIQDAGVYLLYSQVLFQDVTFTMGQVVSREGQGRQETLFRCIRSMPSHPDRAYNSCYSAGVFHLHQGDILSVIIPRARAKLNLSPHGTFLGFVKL
The assay is described as follows: cell binding titration by flow cytometry; soluble APRIL varied to 10 nM on cells displaying the BCMA clone.

The target in assay [3] is BAFF. The assay is described as follows: cell binding titration by flow cytometry; soluble BAFF varied to 10 nM on cells displaying the BCMA clone; B.P is not defined in the filing.
Assay [4] deals with T1, A Proliferation Inducing Ligand (APRIL). The assay is described as follows: cell binding titration by flow cytometry; soluble APRIL varied to 10 nM on cells displaying the BCMA clone; BP is not defined in the filing.
In assay [5] the target is BAFF. The assay is described as follows: cell binding titration by flow cytometry; soluble BAFF varied on cells displaying the BCMA clone.

BAFF, sequence (soluble ligand, as listed by the source): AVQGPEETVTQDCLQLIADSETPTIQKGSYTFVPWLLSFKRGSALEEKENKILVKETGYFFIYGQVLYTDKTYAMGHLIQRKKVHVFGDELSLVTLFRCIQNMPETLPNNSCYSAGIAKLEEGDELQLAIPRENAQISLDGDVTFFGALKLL

B1: BCMA#71 (receptor)
variant BCMA extracellular domain: MLQMAGQCSQNEYFDGLLYACIPCQLRCSSNTPPLACQRYCNASVTNSVKGTDA
notes: also called Clone #71; sBCMA variant clone 71
In the case of B1, the values for the Bmax (with BAFF [1]; in assay [2]) were 1230 A.U and 8270 A.U, respectively. Besides, the Kd (commonly the concentration at which binding is half-saturated) in the assay with BAFF [1] was determined as 0.009 nM; in assay [2], 0.008 nM. This molecule yielded a B.P with BAFF [3] of 136. This molecule also registered a BP in assay [4] of 1030.

B2: BCMA#72 (receptor)
variant BCMA extracellular domain: MLQMAGQCSQNEYFDGLLYACIPCQLRCSSNTPPLACQRYCNASVTNSVKGTNA
notes: also called Clone #72; sBCMA variant clone 72
Take B2: the figures for the Bmax (in the assay with BAFF [1]; in assay [2]) were 974 A.U and 5860 A.U, respectively. The figures for the Kd (with BAFF [1]; in assay [2]) were 0.008 nM and 0.018 nM, respectively. Moreover, in the assay with BAFF [3], the B.P amounted to 121. The same molecule showed a BP in assay [4] of 325.

B3: BCMA#74 (receptor)
variant BCMA extracellular domain: MLQMAGQCPQDEYFDGLLYACIPCQLRCSSNTPPLACQRYCNASVTSSVKGTDA
notes: also called Clone #74; sBCMA variant clone 74
For B3, the values for the Bmax (with BAFF [1]; in assay [2]) were 1680 A.U and 9200 A.U, respectively. In addition, the values for the dissociation constant Kd (with BAFF [1]; in assay [2]) were 0.009 nM and 0.007 nM, respectively. In addition, the B.P with BAFF [3] was 186. Further, the BP in assay [4] amounted to 1310.

B4: BCMA#73 (receptor)
variant BCMA extracellular domain: MLQMAGQCSQNEYFDGLLHACIPCQLRCSSNTPPLACQRYCNASVTNSVKGTNA
notes: also called Clone #73; clone #22
As to B4, in assay [2], the Bmax came out at 5530 A.U and the Kd was found to be 0.054 nM. Further, in assay [4], the BP came out at 102. For the same molecule, in the assay with BAFF [5], the binding result was “no binding”.

B5: BCMA#95 (receptor)
variant BCMA extracellular domain: VSQTAGQCSQDEYFDSLLYACIPCQLRCSSNTPPLACQRYCNASVTNSVKGTNA
notes: also called Clone #95
In assay [2], B5 registered a Bmax of 7230 A.U and a Kd of 0.028 nM. The molecule also came in with a BP in assay [4] of 258.

B6: BCMA#106 (receptor)
variant BCMA extracellular domain: VSQTAGQCSQNEYFDGLLHACIPCQLRCSSDIPPLACQRYCNASVTNSVKGTNA
notes: also called Clone #106; clones #106-111
B6: the Bmax with BAFF [1] was found to be 870 A.U; in assay [2], 7910 A.U. Moreover, the Kd in the assay with BAFF [1] was determined as 0.028 nM; in assay [2], 0.015 nM. Further, the BP in assay [4] was determined as 527.

B7: BCMA#75 (receptor)
variant BCMA extracellular domain: MLPMAGQCPQNEYFDSLLYACIPCQLRCSSSTPPLACQHYCNASVTRSVEGTNA
notes: also called Clone #75; clones #49, 75-94
In assay [2], B7 gave a Bmax of 7060 A.U and a Kd of approximately 0.016 nM. This molecule also had a BP in assay [4] of 441.

These data come from patent US20240294604A1 (Stanford University, published 2024).
